From publication PMC3488251 (Nucleic Acids Research, 2012)

Biological target: T1, XPF (UniProt Q92889 1-916)
T1 sequence (looked up): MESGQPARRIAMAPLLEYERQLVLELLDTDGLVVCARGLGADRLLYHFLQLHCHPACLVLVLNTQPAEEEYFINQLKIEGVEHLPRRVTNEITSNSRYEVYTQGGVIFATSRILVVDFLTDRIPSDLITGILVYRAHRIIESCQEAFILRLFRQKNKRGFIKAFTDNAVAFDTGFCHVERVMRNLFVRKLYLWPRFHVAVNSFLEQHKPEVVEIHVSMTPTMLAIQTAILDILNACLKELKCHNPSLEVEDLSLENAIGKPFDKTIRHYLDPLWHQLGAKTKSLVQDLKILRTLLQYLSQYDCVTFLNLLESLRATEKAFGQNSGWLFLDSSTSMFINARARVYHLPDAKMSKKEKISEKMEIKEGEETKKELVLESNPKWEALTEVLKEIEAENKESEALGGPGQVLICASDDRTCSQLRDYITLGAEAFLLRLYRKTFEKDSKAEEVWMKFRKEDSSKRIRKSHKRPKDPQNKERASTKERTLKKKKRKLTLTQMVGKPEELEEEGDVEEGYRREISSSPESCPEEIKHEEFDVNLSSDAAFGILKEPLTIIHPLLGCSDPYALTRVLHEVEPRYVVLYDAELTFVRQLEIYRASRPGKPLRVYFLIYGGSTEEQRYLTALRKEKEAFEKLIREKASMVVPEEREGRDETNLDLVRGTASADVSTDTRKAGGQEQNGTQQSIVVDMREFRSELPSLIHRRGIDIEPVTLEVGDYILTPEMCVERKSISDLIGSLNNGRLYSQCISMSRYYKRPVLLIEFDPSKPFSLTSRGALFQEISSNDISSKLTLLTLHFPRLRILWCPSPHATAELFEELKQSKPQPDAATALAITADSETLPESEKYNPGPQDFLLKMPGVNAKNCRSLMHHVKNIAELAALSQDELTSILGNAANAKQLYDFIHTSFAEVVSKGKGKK
Assay: SPR

B1: ERCC1 (natural protein, UniProt P07992 1-297, looked up)
chain: MDPGKDKEGVPQPSGPPARKKFVIPLDEDEVPPGVAKPLFRSTQSLPTVDTSAQAAPQTYAEYAISQPLEGAGATCPTGSEPLAGETPNQALKPGAKSNSIIVSPRQRGNPVLKFVRNVPWEFGDVIPDYVLGQSTCALFLSLRYHNLHPDYIHGRLQSLGKNFALRVLLVQVDVKDPQQALKELAKMCILADCTLILAWSPEEAGRYLETYKAYEQKPADLLMEKLEQDFVSRVTECLTTVKSVNKTDSQTLLTTFGSLEQLIAASREDLALCPGLGPQKARRLFDVLHEPFLKVP
For B1, the Kd was ~5 nM.
